Article PMC8699147
Where “and” joins values, the source holds several entries; their conditions need not be identical. Equal values may be shown once.

Target: T1, alpha-fetoprotein, P02771
T1 chain: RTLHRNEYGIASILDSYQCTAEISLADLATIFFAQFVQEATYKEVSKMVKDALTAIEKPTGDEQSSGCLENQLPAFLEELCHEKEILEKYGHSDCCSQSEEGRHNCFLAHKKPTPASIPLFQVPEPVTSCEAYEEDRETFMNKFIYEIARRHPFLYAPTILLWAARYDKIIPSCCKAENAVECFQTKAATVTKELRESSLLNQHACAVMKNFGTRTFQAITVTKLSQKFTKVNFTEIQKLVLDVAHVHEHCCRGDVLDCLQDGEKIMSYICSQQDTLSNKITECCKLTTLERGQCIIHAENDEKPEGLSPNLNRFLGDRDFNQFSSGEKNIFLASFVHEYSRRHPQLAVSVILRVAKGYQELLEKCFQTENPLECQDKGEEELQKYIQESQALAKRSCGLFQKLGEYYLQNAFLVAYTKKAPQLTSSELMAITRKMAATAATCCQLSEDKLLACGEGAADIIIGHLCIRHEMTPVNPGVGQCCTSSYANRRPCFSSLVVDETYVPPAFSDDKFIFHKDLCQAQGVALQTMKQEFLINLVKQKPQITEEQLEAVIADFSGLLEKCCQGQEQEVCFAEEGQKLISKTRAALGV
Assay: native gel or EMSA; native 10% PAGE without SDS of calibrator S1 of VIDAS AFP, 150 V, running buffer 0.025 M TRIS-Base pH 8.3, 0.192 M glycine, Coomassie Blue staining
Conditions: remark: other sources report otherwise

B1: alpha-fetoprotein, P02771 19-609 (natural protein)
chain: RTLHRNEYGIASILDSYQCTAEISLADLATIFFAQFVQEATYKEVSKMVKDALTAIEKPTGDEQSSGCLENQLPAFLEELCHEKEILEKYGHSDCCSQSEEGRHNCFLAHKKPTPASIPLFQVPEPVTSCEAYEEDRETFMNKFIYEIARRHPFLYAPTILLWAARYDKIIPSCCKAENAVECFQTKAATVTKELRESSLLNQHACAVMKNFGTRTFQAITVTKLSQKFTKVNFTEIQKLVLDVAHVHEHCCRGDVLDCLQDGEKIMSYICSQQDTLSNKITECCKLTTLERGQCIIHAENDEKPEGLSPNLNRFLGDRDFNQFSSGEKNIFLASFVHEYSRRHPQLAVSVILRVAKGYQELLEKCFQTENPLECQDKGEEELQKYIQESQALAKRSCGLFQKLGEYYLQNAFLVAYTKKAPQLTSSELMAITRKMAATAATCCQLSEDKLLACGEGAADIIIGHLCIRHEMTPVNPGVGQCCTSSYANRRPCFSSLVVDETYVPPAFSDDKFIFHKDLCQAQGVALQTMKQEFLINLVKQKPQITEEQLEAVIADFSGLLEKCCQGQEQEVCFAEEGQKLISKTRAALGV
stoichiometry N: 2 and 3 and 4
